Where two headings read alike, the source gives them in different places.
Columns and labels:
[1] = biological target: T1, CD26 on CD26 positive human tumor cells (human, UniProt P27487 1-766); experiment: cell-based or functional assay
[2] = biological target: T1, CD26 on CD26 positive human tumor cells; experiment: cell-based or functional assay; remark: listed apart in the source
CD3 protein [3] = biological target: T2, CD3 protein; experiment: BLI (Octet), biotinylated CD3 on SA sensor, antibody 200-1600 nM
T2 chain 1: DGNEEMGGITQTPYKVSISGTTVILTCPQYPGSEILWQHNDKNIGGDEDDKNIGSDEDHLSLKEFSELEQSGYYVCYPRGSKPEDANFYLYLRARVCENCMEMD
T2 chain 2: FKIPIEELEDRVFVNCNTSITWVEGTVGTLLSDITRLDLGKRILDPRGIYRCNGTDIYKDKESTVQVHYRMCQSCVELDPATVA
Procedure: CD3 protein was biotinylated with EZ-link NHS-PEG12-Biotin. Biotinylated CD3 protein was immobilized to SA biosensor. Equilibrated in 1×Kinetics solution. The CD3 immobilized to SA biosensor was combined with the humanized bispecific antibody solution to be detected. The concentration gradient of humanized bispecific antibody was 200 nM, 400 nM, 800 nM, and 1600 nM. The biosensor was dissociated in 1×Kinetics solution. Fortebio Data Analysis 8.0 software was used for data analysis and affinity constant values were calculated.

[4] = biological target: T3, CD26 protein (recombinant human CD26) (human, UniProt P27487 29-766, limits assumed); experiment: BLI (Octet), biotinylated CD26 on SA sensor, antibody 31.3-500 nM
T3 construct: Amine-coupled, biotinylated or HRP-labeled according to the assay; also called DPP4; rCD26
Procedure: CD26 protein was biotinylated with EZ-link NHS-PEG12-Biotin. Biotinylated CD26 protein was immobilized to SA biosensor. Equilibrated in 1×Kinetics solution. The CD26 immobilized to SA biosensor was combined with the antibody solution to be detected. The concentration gradients of the antibody solution were 31.3 nM, 62.5 nM, 125 nM, 250 nM, and 500 nM. The biosensor was dissociated in 1×Kinetics solution. Fortebio Data Analysis 8.0 software was used for data analysis and affinity constant values were calculated.

[5] = biological target: T1, CD26 on CD26 positive human tumor cells; experiment: cell-based or functional assay; remark: listed apart in the source
[6] = biological target: T1, CD26 on CD26 positive human tumor cells; experiment: cell-based or functional assay; remark: listed apart in the source
CD3 protein [7] = biological target: T2, CD3 protein; experiment: BLI (Octet QKe), CD3 amine-coupled on AR2G sensor, antibody at 181.8 nM
Procedure: The affinity of chimeric antibodies to antigen protein CD3 was determined by Fortebio Intermolecular Interaction Octet QKe instrument. First, the amino-coupled biosensor AR2G was activated with EDC/s-NHS, and the activated biosensor AR2G was solidified in CD3 protein solution diluted with 10 mM sodium acetate (pH 5.0) solution. The biosensor solidified with CD3 was quenched in 1M ethanolamine (pH8.5) solution. Then equilibrated in 1× kinetic solution. After equilibration, it was bound to bispecific antibody solution. They were dissociated in 1×kinetic solution. Fortebio Data Analysis 8.0 software was used to analyze the data and calculate the affinity constant value (KD).

[8] = biological target: T3, CD26 protein (recombinant human CD26); experiment: BLI (Octet QKe), CD26 amine-coupled on AR2G sensor, antibody at 181.8 nM
Procedure: The affinity of the chimeric antibody to the antigen protein CD26 was detected by Fortebio Intermolecular Interaction Octet QKe instrument. First, the amino-coupled biosensor AR2G was activated with EDC/s-NHS, and the activated biosensor AR2G was solidified in CD26 protein solution diluted with 10 mM sodium acetate (pH 5.0) solution. The biosensor solidified with CD26 was quenched in 1M ethanolamine (pH8.5) solution. Then equilibrated in 1× kinetic solution. After equilibration, it was bound to a humanized bispecific antibody solution. It was dissociated in 1× kinetic solution. Fortebio Data Analysis 8.0 software was used to analyze the data and calculate the affinity constant (KD), association rate constant (kon) and dissociation rate constant (kdis). The Response value represents the number of antibody molecules that can bind to the antigen. Kon indicates the binding speed of the antibody to the corresponding receptor. Kdis represents the dissociation speed of antibody from corresponding receptor. NA indicates no valid data.

B1: 19G294 (anti-CD26-CD3 humanized bispecific antibody derived from No. 62 mouse antibody) (bispecific antibody)
chain: DIVMTQSPSSLSVTPGERVSISCRSDKSLLHSNGNTYLYWFLQKPGQSPQVLIYRMSNLASGVPDRFSGSGSGTDFTLTISRVEAEDVGVYYCFQQLEYPYTFGQGTKLEIKGGGGSGGGGSGGGGSEVQLVQSGAELVKPGASVKLSCAASGFNIKDTYIYWVRQAPGQGLEWVGRIEPMNGNTKYDPKFQGRFTMTANTSKNTAYLQLSSLRSEDTAVYYCSRGGWLLLYVMDYWGQGTLVTVSSGGGGSDVQLVQSGAEVKKPGASVKVSCKASGYTFTRYTMHWVRQAPGQGLEWIGYINPSRGYTNYADSVKGRFTITTDKSTSTAYMELSSLRSEDTATYYCARYYDDHYCLDYWGQGTTVTVSSGGGGSGGGGSGGGGSDIVLTQSPATLSLSPGERATLSCRASQSVSYMNWYQQKPGKAPKRWIYDTSKVASGVPARFSGSGSGTDYSLTINSLEAEDAATYYCQQWSSNPLTFGGGTKVEIK
notes: also called 19G294 BiTE
[1]
  EC50 of antibody mediated cytotoxicity of PBMC against 786-0-LUC cells (luciferase reporter): 1.43 ng/mL
  EC50 of antibody mediated cytotoxicity of PBMC against A498-LUC cells (luciferase reporter): 4.15 ng/mL
[2]
  IC50 of antibody mediated PBMC cytotoxicity against 786-0 cells: 0.26 ng/mL
  IC50 of antibody mediated PBMC cytotoxicity against HCC 827 cells: 0.546 ng/mL
  IC50 of antibody mediated PBMC cytotoxicity against NCI-H226 cells: 0.752 ng/mL
  IC50 of antibody mediated PBMC cytotoxicity against NCI-H2052 cells: 5.05 ng/mL
  IC50 of antibody mediated PBMC cytotoxicity against OS-RC-2 cells: 0.545 ng/mL
  IC50 of antibody mediated PBMC cytotoxicity against PC-3 cells: 0.22 ng/mL
CD3 protein [3]
  Kd: 0.751 nM
  koff: 0.000178 s⁻¹
  kon: 238000 M⁻¹ s⁻¹
[4]
  Kd: 0.914 nM
  koff: 8.45e-05 s⁻¹
  kon: 92400 M⁻¹ s⁻¹
[5]
  EC50 of antibody mediated cytotoxicity of PBMC against 786-0-LUC cells (luciferase reporter): 2.62 ng/mL
  EC50 of antibody mediated cytotoxicity of PBMC against A498-LUC cells (luciferase reporter): 3.21 ng/mL

B2: 21G587 (19G294 anti-CD26 scFv joined to the WBP3311_2.306.4 anti-CD3 scFv) (bispecific antibody)
chain: EVQLVQSGAELVKPGASVKLSCAASGFNIKDTYIYWVRQAPGQGLEWVGRIEPMNGNTKYDPKFQGRFTMTANTSKNTAYLQLSSLRSEDTAVYYCSRGGWLLLYVMDYWGQGTLVTVSSGGGGSGGGGSGGGGSDIVMTQSPSSLSVTPGERVSISCRSDKSLLHSNGNTYLYWFLQKPGQSPQVLIYRMSNLASGVPDRFSGSGSGTDFTLTISRVEAEDVGVYYCFQQLEYPYTFGQGTKLEIKGGGGSQVQLVQSGAEVKKPGSSVKVSCKASGFAFTDYYIHWVRQAPGQGLEWMGWISPGNVNTKYNENFKGRVTITADKSTSTAYMELSSLRSEDTAVYYCARDGYSLYYFDYWGQGTLVTVSSGGGGSGGGGSGGGGSDIVMTQSPDSLAVSLGERATINCKSSQSLLNSRTRKNYLAWYQQKPGQPPKLLIYWASTRQSGVPDRFSGSGSGTDFTLTISSLQAEDVAVYYCTQSHTLRTFGGGTKVEIK
[1]
  EC50 of antibody mediated cytotoxicity of PBMC against 786-0-LUC cells (luciferase reporter): 2.49 ng/mL
  EC50 of antibody mediated cytotoxicity of PBMC against A498-LUC cells (luciferase reporter): 5.4 ng/mL
CD3 protein [3]
  Kd: 0.683 nM
  koff: 8.71e-05 s⁻¹
  kon: 128000 M⁻¹ s⁻¹
[4]
  Kd: 0.352 nM
  koff: 4.01e-05 s⁻¹
  kon: 114000 M⁻¹ s⁻¹

B3: YS110 (humanized anti-CD26 full-length IgG antibody) (antibody, V domains shown)
VH: EVQLVESGAGVKQPGGTLRLTCTASGFSLTTYGVHWVRQAPGKGLEWVGVIWGDGRTDYDAAFMSRVTISKDTSKSTVYLQMNSLRAEDTAVYYCMRNRHDWFDYWGQGTTVTVSS
VL: DILLTQSPSSLSATPGERATITCRASQGIRNNLNWYQQKPGQAPRLLIYYSSNLQSGVPSRFSGSGSGTDFTLTISRLQPEDVAAYYCQQSIKLPFTFGSGTKVEIK
[2]
  IC50 of antibody mediated PBMC cytotoxicity against 786-0 cells: > 100 ng/mL
  IC50 of antibody mediated PBMC cytotoxicity against NCI-H226 cells: > 100 ng/mL
  IC50 of antibody mediated PBMC cytotoxicity against OS-RC-2 cells: > 100 ng/mL
  IC50 of antibody mediated PBMC cytotoxicity against PC-3 cells: > 100 ng/mL
[6]
  cell lysis rate, antibody mediated PBMC cytotoxic effect on 786-0 cells (100 ng/ml, 5 h): 56.6%

B4: 17G105 (anti-CD26-CD3 chimeric bispecific antibody derived from No. 72 mouse antibody) (bispecific antibody)
chain: DIVLTQSPASLAVSLGQRATISCRASESVEYYGTSLMQWYQQKPGQPPKLLIYTASNVESGVPVRFSGSGSGTDFSLNIHPVEEDDIAMYFCQQSRKVPYTFGGGTKLEIKGGGGSGGGGSGGGGSQVQLQQSGPELMKPGASVKISCKATGYSFSGFWIEWVKQRPGHGLEWIGEILPGSGASNYHENFKGRATITADTSANTAYMQLRSLTSEDSAVYYCARERYYGSKYFDVWGAGTTVTVSSGGGGSDVQLVQSGAEVKKPGASVKVSCKASGYTFTRYTMHWVRQAPGQGLEWIGYINPSRGYTNYADSVKGRFTITTDKSTSTAYMELSSLRSEDTATYYCARYYDDHYCLDYWGQGTTVTVSSGGGGSGGGGSGGGGSDIVLTQSPATLSLSPGERATLSCRASQSVSYMNWYQQKPGKAPKRWIYDTSKVASGVPARFSGSGSGTDYSLTINSLEAEDAATYYCQQWSSNPLTFGGGTKVEIK
notes: also called chimeric BiTE
CD3 protein [7]
  Kd: 2.18 nM
  koff: 0.000672 s⁻¹
  kon: 309000 M⁻¹ s⁻¹
[8]
  Kd: 39.3 nM
  Response: 0.498
  koff: 0.00126 s⁻¹
  kon: 32000 M⁻¹ s⁻¹

B5: 17G61 (anti-CD26-CD3 chimeric bispecific antibody derived from No. 62 mouse antibody) (bispecific antibody)
chain: DIVMTQAAPSVSVTPGESVSISCRSDKSLLHSNGNTYLYWFLQRPGQSPQVLIYRMSNLASGVPDRFSGSGSGTGFTLRVSRVEAEDVGVYYCFQQLEYPYTFGGGTKLEIKGGGGSGGGGSGGGGSEVQLQQSGAELVKPGASVKLSCTASGFNIKDTYIYWVKQRPGQGLEWIGRIEPMNGNTKYDPKFQGKATMTANTSSNTAYLHLSSLASEDTAVYFCSRGGWLLLYVMDYWGQGTSVTVSSGGGGSDVQLVQSGAEVKKPGASVKVSCKASGYTFTRYTMHWVRQAPGQGLEWIGYINPSRGYTNYADSVKGRFTITTDKSTSTAYMELSSLRSEDTATYYCARYYDDHYCLDYWGQGTTVTVSSGGGGSGGGGSGGGGSDIVLTQSPATLSLSPGERATLSCRASQSVSYMNWYQQKPGKAPKRWIYDTSKVASGVPARFSGSGSGTDYSLTINSLEAEDAATYYCQQWSSNPLTFGGGTKVEIK
notes: also called chimeric BiTE
CD3 protein [7]
  Kd: 8.87 nM
  koff: 0.00159 s⁻¹
  kon: 179000 M⁻¹ s⁻¹
[8]
  Kd: 17.3 nM
  Response: 0.849
  koff: 0.000331 s⁻¹
  kon: 19100 M⁻¹ s⁻¹

B6: 17G131 (anti-CD26-CD3 chimeric bispecific antibody derived from No. 51 mouse antibody) (bispecific antibody)
chain: DIQMTQSPASLSASVGESVTITCRASENIYSYLTWYQQKQGKSPQLLVYNAKTLTEDVPSRFSGSGSGTQFSLKINSLQPEDFGSYYCQHHYGSPRTFGGGTKLEIKGGGGSGGGGSGGGGSQAQLQQSGAELMKPGASVKISCKATGYTFSNFWIEWVVQRPGHGLEWIGEILPGRGTTNYNEKFRGKATFTADTSSDTAYIQLSSLTSEDSAVYYCARERFYGSKYFDVWGAGTTVTVSSGGGGSDVQLVQSGAEVKKPGASVKVSCKASGYTFTRYTMHWVRQAPGQGLEWIGYINPSRGYTNYADSVKGRFTITTDKSTSTAYMELSSLRSEDTATYYCARYYDDHYCLDYWGQGTTVTVSSGGGGSGGGGSGGGGSDIVLTQSPATLSLSPGERATLSCRASQSVSYMNWYQQKPGKAPKRWIYDTSKVASGVPARFSGSGSGTDYSLTINSLEAEDAATYYCQQWSSNPLTFGGGTKVEIK
notes: also called chimeric BiTE
[8]
  Kd: 43.6 nM
  Response: 0.15
  koff: 0.000829 s⁻¹
  kon: 19000 M⁻¹ s⁻¹

B7: No. 212 mouse antibody (antibody, V domains shown)
VH: EVQLQEAGPSLVKPSQTLSLTCFVTGDSITSGYWHWIRKFPGNKLEYMGYINYSGYTYYNPSLKSRFSITRDTSKNQYYLQLNSVTTEDTATYYCTSERNWGAFAYWGQGTLITVSS
VL: ENVLTQSPAIMSASPGEKVTMTCRASSSVISTYLHWYQQKSGASPKLWIYSTSNLASGVPARFSGSGSGTSYSLTISSVEAEDAATYYCQQFSGYPYTFGGGTKLEIK
[6]
  cell lysis rate, antibody mediated PBMC cytotoxic effect on 786-0 cells (100 ng/ml, 5 h): 11.3%

B8: No. 62 mouse antibody (antibody, V domains shown)
VH: EVQLQQSGAELVKPGASVKLSCTASGFNIKDTYIYWVKQRPGQGLEWIGRIEPMNGNTKYDPKFQGKATMTANTSSNTAYLHLSSLASEDTAVYFCSRGGWLLLYVMDYWGQGTSVTVSS
VL: DIVMTQAAPSVSVTPGESVSISCRSDKSLLHSNGNTYLYWFLQRPGQSPQVLIYRMSNLASGVPDRFSGSGSGTGFTLRVSRVEAEDVGVYYCFQQLEYPYTFGGGTKLEIKR
[6]
  cell lysis rate, antibody mediated PBMC cytotoxic effect on 786-0 cells (100 ng/ml, 5 h): 53.1%
